Target: peptide #49+50 (combined sequences of EspB peptides #49 and #50) (Enteropathogenic Escherichia coli (EPEC))
Test: ELISA, plate coated with peptide #49+50, serially diluted mAb, anti-human IgG-HRP

B1: mAb-EspB-B7 (antibody, V domains shown)
VH: EVQLLESGGGLVQPGGSLRLSCAASGFTFSHYAMNWVRQAPGKGLEWVSAINSNGDSTYYPDTVKDRFTISRDNSKNTLYLQMNSLRAEDTAVYYCARDRRAGYFDYWGQGTLVTVSS
VL: DIVLTQPPSASGTPGQRVTISCSGSRDNIGKNYVSWYQQLPGTAPKLLIYRNNQRPSGVPDRFSGSKSGTSASLAISGLRSEDEADYYCSAWDTSLNAYVFGPGTQLTVL
Work on B1 yielded an EC50 (read off the curve) of 0.4 µg/mL.

— US20250264433A1
